US11814435B2, “Therapeutic antibodies and their uses” (PFIZER INC., priority 2015, dated 2023)
Each block holds one molecule with its values, some of them ahead of it.

What was measured:
OPM2 cells = experiment: Anti-BCMA/CD3 bispecific with lenalidomide, carfilzomib or doxorubicin, T cell killing of OPM2 (flow cytometry live cells); type: cell-based; settings: FIGS. 15A-15C; 1.56 nM carfilzomib, 195 nM lenalidomide, 6.25 nM doxorubicin; three days
Description: OPM2 and CD3+ T cells were first incubated with the standard of care for two hours at 37°. 1.56 nM carfilzomib and 6.25 nM doxorubicin were diluted in PBS containing 0.02% DMSO. Lenalidomide was diluted in PBS containing 0.1% DMSO at 195 nM. Cells were treated with 10-fold serially diluted bispecific antibody.

[1] = tested on: Molp8 LucGFP orthotopic myeloma; experiment: Anti-BCMA/CD3 bispecific in combination with standard of care in orthotopic Molp8 tumor model; type: in vivo, NSG mice; settings: FIG. 14; bispecific 0.3 mg/kg; bortezomib 1 mg/kg i.p.; lenalidomide 50 mg/kg oral gavage
Description: In vivo efficacy study of BCMA bispecifics was performed with Molp8, expressing luciferase and GFP, orthotopic model. Two million Molp8 LucGFP cells were injected intravenously through the tail vein into 6-8 weeks old female NSG animals. Intraperitoneal injection of D-luciferin (Regis Technologies, Morton Grove, Ill.) (200 uL per animal at 15 mg/mL), followed by anesthesia with isofluorane and subsequent whole body bioluminescence imaging (BLI) enabled monitoring of tumor burden. Bioluminescent signals emitted by the interaction between luciferase expressed by the tumor cells and luciferin were captured by imaging using an IVIS Spectrum CT (Perkin Elmer, MA) and quantified as total flux (photons/sec) using Living Image 4.4 (Caliper Life Sciences, Alameda, Calif.). The animals were injected through bolus tail vein on day 7 with 20 million expanded T cells as described in Example 18. Two days post T cell injection, mice were imaged and randomized into five groups of seven mice with an average of 17E6 total flux/group: 1) Combo_Rd4_0.6 nM_C29, 0.3 mg/kg, 2) Combo_Rd4_0.6 nM_C29, 0.3 mg/kg and 1 mg/kg bortezomib, 3) Combo_Rd4_0.6 nM_C29, 0.3 mg/kg and 50 mg/kg lenalidomide, 4) 1 mg/kg bortezomib and 50 mg/kg lenalidomide and 5) vehicle. […]

BCMA = molecular target: T1, BCMA (Homo sapiens, UniProt Q02223); settings: background; read-out: affinity for BCMA; cited from earlier work
T1 sequence (Q02223 1-184): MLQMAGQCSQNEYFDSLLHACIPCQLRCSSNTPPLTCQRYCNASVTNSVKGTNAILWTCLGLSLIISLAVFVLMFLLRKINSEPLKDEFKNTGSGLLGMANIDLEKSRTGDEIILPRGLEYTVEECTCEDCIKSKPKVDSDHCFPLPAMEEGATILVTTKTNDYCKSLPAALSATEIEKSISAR

bsc_hCD3ed = bsc_hCD3ed (Homo sapiens, UniProt P07766); experiment: Biacore kinetics anti-xCD3e ab/bsc_hCD3ed; type: binding; settings: data fitted from 80 nM-0.64 nM
Sequence of bsc_hCD3ed (P07766 23-126 limits assumed): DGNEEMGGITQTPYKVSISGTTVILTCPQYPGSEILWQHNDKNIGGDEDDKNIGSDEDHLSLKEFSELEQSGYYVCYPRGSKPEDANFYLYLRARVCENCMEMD
Sequence of bsc_hCD3ed (P04234 22-105 partner limits assumed): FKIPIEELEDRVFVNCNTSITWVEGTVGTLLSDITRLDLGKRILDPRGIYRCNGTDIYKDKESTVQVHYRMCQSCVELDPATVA

human PBMC = experiment: PBMC T cell proliferation by 3H-thymidine incorporation; type: cell-based; settings: FIG. 10A/10B, 2 day cultures
Description: (§1) Human anti-CD3 antibodies were cloned from immunized mouse, expressed as mouse IgG1, and purified by Protein A affinity beads. Human/Cynomolgus peripheral blood mononuclear cells (hu/cyPBMC) were prepared by Ficoll (Density: 1.083 g/mL, GE) density gradient centrifugation from blood filters obtained from local blood banks. Erythrocytes were removed by incubating in LCK buffer (155 mM NH4Cl, 10 mM KHCO3, […]; Gibco) for 3 minutes at room temperature. Cells were centrifuged for 5 min at 600 g. The supernatant containing the lysed erythrocytes was discarded, and the PBMC were washed twice in 50 ml 1×PBS/1% BSA/1 mM EDTA. The pelleted cells were adjusted to 10^7 cells per ml in culture media, X-VIVO-15, serum free media (Lonza,), and the PBMC were seeded as 10^6 (100 ul) per-well to round bottom 96 well tissue culture plates. Selected Abs are 10× serial diluted from 1000 ng to 1 ng per mL for mixing with human PBMC and 5× serial diluted from 5000 ng to 200 ng per mL for mixing with cynomolgus PBMC. For analysis of PBMC T cell proliferation by ^3H-thymidine incorporation, 2 day cultures were performed in triplicate. During the final 16 h of culture ^3H-thymidine ([…]) was added, and incorporation was measured. Cells are harvested and lysed, DNA is captured onto glass-fiber filter. Radioactivity (cpm) as measure for proliferation by counting on a scintillation beta-counter.

cynomolgus PBMC = experiment: as above; type: cell-based; settings: FIG. 10A/10B, 2 day cultures
Description: as §1

[2] = tested on: primary myeloma cells from myeloma patients; experiment: T cell mediated killing of primary myeloma patient samples by anti-BCMA/CD3 bispecific (flow cytometry live cell count); type: cell-based, human; settings: Patient MM00146; anti-BCMA_h2B4 bispecific; five days after treatment
Description: Human anti-BCMA (P5A2, A02_Rd4_0.6 nM_C01, A02_Rd4_6 nM_C16, Combo_Rd4_0.6 nM_C29, and P6E01 L3PY/H3TAQ) and human anti-CD3 (h2B4) antibodies were expressed as human IgG2dA engineered with EEEE or RRRR for bispecific exchange as describe in Example 8.
Cells were treated with 10-fold serially diluted bispecific antibody. […] EC50 was calculated by Prism software.

cyCD3ed = cyCD3ed (Macaca fascicularis, UniProt Q95LI5); experiment: Kinetics and affinity of cyCD3ed/human IgG interactions by SPR (Bio-Rad Proteon XPR36); type: binding, cynomolgus
Sequence of cyCD3ed (Q95LI5 22-117 limits assumed): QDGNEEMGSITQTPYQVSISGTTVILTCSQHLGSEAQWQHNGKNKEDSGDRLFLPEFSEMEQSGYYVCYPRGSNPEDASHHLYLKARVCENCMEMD
Sequence of cyCD3ed (Q95LI8 22-105 partner limits assumed): as the sequence (P04234 22-105 partner limits assumed) above, with I5V, N15K, I20V, S32T, D33N, I34N, T64A, S74N, V83L counted along it

hCD3 (human CD3) = hCD3 (human CD3) (Homo sapiens, UniProt P07766); experiment: Kinetics and affinity of hCD3/human IgG interactions by SPR (Bio-Rad Proteon XPR36); type: binding
Sequence of hCD3 (human CD3) (P07766 23-126 limits assumed): as the sequence (P07766 23-126 limits assumed) above
Sequence of hCD3 (human CD3) (P04234 22-105 partner limits assumed): as the sequence (P04234 22-105 partner limits assumed) above
Description: All experiments were performed on a Bio-Rad Proteon XPR36 surface Plasmon resonance biosensor (Bio-Rad, Hercules, Calif.). An array of anti-CD3 antibodies was prepared using an amine-coupling method on a Bio-Rad GLC Sensor Chip similar to that described in Abdiche, et al., Anal. Biochem. 411, 139-151 (2011). The analysis temperature for the immobilization was 25° C. and the running buffer was HBS-T+(10 mM HEPES, 150 mM NaCl, 0.05% Tween-20, pH 7.4). Channels were activated in the analyte (horizontal) direction by injecting a mixture of 1 mM ECD and 0.25 mM NHS for 3 minutes at a flow rate of 30 μL/min. IgGs were immobilized on the activated spots by injecting them in the ligand (vertical) direction at 20 μg/mL in 10 mM Acetate pH 4.5 buffer for 1.5 minutes at […]. The activated surfaces were blocked by injecting 1M ethanolamine, pH 8.5 in the analyte direction for 3 minutes at 30 μL/min.
The analysis temperature for the hCD3 binding analysis was 37° C. or 25° C. in a running buffer of HBS-T+, supplemented with 1 mg/mL BSA. A kinetic titration method was employed for the interaction analysis as described in Abdiche, et al. The hCD3 (human CD3) analyte was injected in the analyte direction using a series of injections from low to high concentration. The concentrations used were 0.08 nM, 0.4 nM, 2 nM, 10 nM and 50 nM (a 5-membered series, with a 5-fold dilution factor and top concentration of 50 nM). The association time for a given analyte dilution was two minutes. Immediately after the 50 nM hCD3 injection, dissociation was monitored for 2 hours. Prior to the hCD3 analyte injections, buffer was injected 5 times using the same association and dissociation times at the hCD3 analyte cycles to prepare a buffer blank sensorgram for double-referencing purposes (double referencing as described in Myszka, J. Mol. Recognit. 12, 279-284 (1999).
The sensorgrams were double-referenced and fit to a 1:1 Langmuir with mass transport kinetic titration model in BIAevaluation Software version 4.1.1 (GE Lifesciences, Piscataway, N.J.).

Molecule: COc1cccc2c1C(=O)c1c(O)c3c(c(O)c1C2=O)C[C@@](O)(C(=O)CO)C[C@@H]3O[C@H]1C[C@H](N)[C@H](O)[C@H](C)O1 [doxorubicin]
effect on the function of Combo_Rd4_0.6 nM_C29-CD3 bispecific antibody on OPM2 cells (OPM2 cells): do not have a negative effect

Molecule: CC(C)C[C@H](NC(=O)[C@H](Cc1ccccc1)NC(=O)c1cnccn1)B(O)O [bortezomib, [(1R)-3-methyl-1-[[(2S)-1-oxo-3-phenyl-2-[(pyrazinylcarbonyl)amino]propy-l]amino]butyl]boronic acid]
effect of combining on the efficacy of the anti-BCMA/CD3 bispecific antibody [1]: did not have a negative effect

Molecule: BAFF: B-cell activation factor, ligand of BCMA
Kd (BCMA): 1000 nM

Molecule: Nc1cccc2c1CN(C1CCC(=O)NC1=O)C2=O (stereo not shown) [lenalidomide]
effect on the function of Combo_Rd4_0.6 nM_C29-CD3 bispecific antibody on OPM2 cells (OPM2 cells): do not have a negative effect | effect of combining on the efficacy of the anti-BCMA/CD3 bispecific antibody [1]: did not have a negative effect

Molecule: APRIL: a proliferation-inducing ligand, ligand of BCMA
Kd (BCMA): 16 nM

Molecule: CC(C)C[C@H](NC(=O)[C@H](CCc1ccccc1)NC(=O)CN1CCOCC1)C(=O)N[C@@H](Cc1ccccc1)C(=O)N[C@@H](CC(C)C)C(=O)[C@@]1(C)CO1 [carfilzomib]
effect on the function of Combo_Rd4_0.6 nM_C29-CD3 bispecific antibody on OPM2 cells (OPM2 cells): do not have a negative effect

ka (bsc_hCD3ed): 2.96E+05 | kd (bsc_hCD3ed): 2.37E−03
B1: 1C10: anti-CD3 antibody cloned from mouse hybridoma, expressed as mouse IgG1 (antibody, V domains shown)
VH: QVQLQQPGSELVRPGASVILSCKASGYTFTSYWMHWVRQRPGQGLEWIGNIYSGGDTINYDEKFKNKAILTVDTSSSTAYMHLSSLTSEDSAVYYCTRDATSRYFFDYWGQGTTVTVSS
VL: DIVMSQSPSSLAVSAGEKVTMSCKSSQSLLNSRTRKNYLAWYQQKPGQSPKLLIYWASTRESGVPDRFTGSGSGTDFTLTIDSVQPEDLAVYYCTQSFILRTFGGGTKLEIK
modifications: mouse IgG1 constant regions
Thymidine incorporation (human PBMC): had Thymidine incorporation reading | Thymidine incorporation (cynomolgus PBMC): had Thymidine incorporation reading

B2: P5A2: anti-BCMA_H2B4 bispecific, human IgG2dA: anti-BCMA arm P5A2, anti-CD3 arm H2B4 (antibody, V domains shown)
VH: EVQLLESGGGLVQPGGSLRLSCAASGFTFSSYAMNWVRQAPGKGLEWVSAISDSGGSTYYADSVKGRFTISRDNSKNTLYLQMNSLRAEDTAVYYCARYWPMDIWGQGTLVTVSS
VL: EIVLTQSPGTLSLSPGERATLSCRASQSVSSSYLAWYQQKPGQAPRLLMYDASIRATGIPDRFSGSGSGTDFTLTISRLEPEDFAVYYCQQYGSWPLTFGQGTKVEIK
EC50 [2]: 0.946 nM

ka cyCD3ed @25° C. (cyCD3ed): 390000 M⁻¹ s⁻¹ | kd cyCD3ed @25° C. (cyCD3ed): 0.0015 s⁻¹ | ka huCD3ed @25° C. (hCD3 (human CD3); 25° C.): 370000 M⁻¹ s⁻¹ | kd huCD3ed @25° C. (hCD3 (human CD3); 25° C.): 0.002 s⁻¹ | ka huCD3ed @37° C. (hCD3 (human CD3); 37° C.): 437000 M⁻¹ s⁻¹ | kd huCD3ed @37° C. (hCD3 (human CD3); 37° C.): 0.01369 s⁻¹
B3: h2B4: anti-CD3 antibody (antibody, V domains shown)
VH: EVQLVESGGGLVQPGGSLRLSCAASGFTFSDYYMTWVRQAPGKGLEWVAFIRNRARGYTSDHNASVKGRFTISRDNAKNSLYLQMNSLRAEDTAVYYCARDRPSYYVLDYWGQGTTVTVSS
VL: DIVMTQSPDSLAVSLGERATINCTSSQSLFNVRSRKNYLAWYQQKPGQPPKLLISWASTRESGVPDRFSGSGSGTDFTLTISSLQAEDVAVYYCKQSYDLFTFGSGTKLEIK

ka (bsc_hCD3ed): 3.74E+05 | kd (bsc_hCD3ed): 2.74E−03
B4: 2B4: anti-CD3 antibody cloned from mouse hybridoma, expressed as mouse IgG1 (antibody, V domains shown)
VH: EVKLVESGGGLVQPGGSLRLSCATFGFTFTDYYMTWVRQPPGKALEWVAFIRNRARGYTSDHNASVKGRFTISRDNSQNILYLQMNTLRAEDSATYYCARDRPSYYVLDYWGQGTTVTVSS
VL: DIVMSQSPPSLAVSVGDKVTMSCTSSQSLFNSRSRKNYLAWYQQKSGQSPKLLISWASTRESGVPDRFTGSGSGTDFTLTISSVQAEDLAVYYCKQSYDLFTFGSGTKLEIK
modifications: mouse IgG1 constant regions
Thymidine incorporation (human PBMC): had Thymidine incorporation reading | Thymidine incorporation (cynomolgus PBMC): had Thymidine incorporation reading
